B1: Cyclin-dependent kinase 14 (Homo sapiens), O94921 (parent)
chain: MCDLIEPQPAEKIGKMKKLRRTLSESFSRIALKKDDTTFDEICVTKMSTRNCQGMDSVIKPLDTIPEDKKVRVQRTQSTFDPFEKPANQVKRVHSENNACINFKTSSTGKESPKVRRHSSPSSPTSPKFGKADSYEKLEKLGEGSYATVYKGKSKVNGKLVALKVIRLQEEEGTPFTAIREASLLKGLKHANIVLLHDIIHTKETLTLVFEYVHTDLCQYMDKHPGGLHPDNVKLFLFQLLRGLSYIHQRYILHRDLKPQNLLISDTGELKLADFGLARAKSVPSHTYSNEVVTLWYRPPDVLLGSTEYSTCLDMWGVGCIFVEMIQGVAAFPGMKDIQDQLERIFLVLGTPNEDTWPGVHSLPHFKPERFTLYSSKNLRQAWNKLSYVNHAEDLASKLLQCSPKNRLSAQAALSHEYFSDLPPRLWELTDMSSIFTVPNVRLQPEAGESMRAFGKNNSYGKSLSNSKH

Variants of: B1
Conditions: with ccny_human CCNY

Row | effect of a mutation on the interaction | Variant
1 | decreasing interaction strength | K164R
